Measurements: patent US10752675B2, “Compounds for treating the remyelination blockade in diseases associated with the expression of HERV-W envelope protein” (GENEURO S.A., priority 2012, dated 2020)
“Also recorded” adds a separate entry of the source.

Test system: human OPC
Test: Expression of CNPase in human OPC in primary culture stimulated by MSRV-Env, with or without GNbAC1 (immunocytochemistry)
Assay type: cell-based
Settings: for CNPase positive cells, normalized to control condition (buffer = 100%): pooled data
Experimental: Full length recombinant MSRV-Env was produced and purified by PX′Therapeutics (548 aa; 61.44 KDa) (batch 110719-1). The initial concentration was 0.6 mg/ml (9.76 μM). MSRV-Env Buffer (20 mM Trizma-HCl, pH 7.5, 150 mM NaCl, 1.5% SDS, 10 mM DTT) was provided by PX′Therapeutics. This solution was used as a negative control. GNbAC1 (Batch T96/bAC1/B1; GMP production) was produced and purified by Polymun Scientific, Vienna, Austria. The initial concentration was 10 mg/ml (68.03 μM).
Human OPC were stimulated with the different treatments either by coating solutions on the cell culture plate surface before cells seeding or by adding them in the cell culture medium after cells seeding. In any case, labtek 8-wells chamber slides (Nunc) were previously coated with poly-L-lysine (Sigma-Aldrich) overnight at 37° C.
The different treatments were diluted in PBS under a sterile laminar flow hood (Fischer Bioblock, France) and the Labtek 8 wells chambers slides (Nunc; 250 μl per well) were coated as follows: • MSRV-Env (1 μg/ml) coated for 2 hours at 37° C. • MSRV-Env Buffer (same dilution than MSRV-Env) coated for 2 hours at 37° C. • MSRV-Env+GNbAC1 A1: MSRV-Env (1 μg/ml) and GNbAC1 (7.35 μg/ml=50 nM) mixture coated for 2 hours at 37° C. • MSRV-Env+GNbAC1 A2: MSRV-Env (1 μg/ml) and GNbAC1 (29.4 μg/ml=200 nM) mixture coated for 2 hours at 37° C. • MSRV-Env+GNbAC1 B1: MSRV-Env (1 μg/ml) coated for 2 hours at 37° C., washed with PBS and subsequently coated with GNbAC1 (7.35 μg/ml=50 nM) for 1 hour at 37° C. • MSRV-Env+GNbAC1 B2: MSRV-Env (1 μg/ml) coated for 2 hours at 37° C., washed with PBS and subsequently coated with GNbAC1 (29.4 μg/ml=200 nM) for 1 hour at 37° C. • GNbAC1 A1 alone: GNbAC1 (7.35 μg/ml=50 nM) coated for 2 hours at 37° C. • GNbAC1 A2 alone: GNbAC1 (29.4 μg/ml=200 nM) coated for 2 hours at 37° C. • GNbAC1 B1 alone: PBS for 2 hours at 37° C., then coated with GNbAC1 (7.35 μg/ml=50 nM) for 1 hour at 37° C. • GNbAC1 B2 alone: PBS for 2 hours at 37° C., then coated with GNbAC1 (29.4 μg/ml=200 nM) for 1 hour at 37° C. • BSA (1 μg/ml) coated for 2 hours at 37° C. • BSA+GNbAC1 A1: BSA (1 μg/ml) and GNbAC1 (7.35 μg/ml=50 nM) mixture coated for 2 hours at 37° C. • BSA+GNbAC1 A2: BSA (1 μg/ml) and GNbAC1 (29.4 μg/ml=200 nM) mixture coated for 2 hours at 37° C. • BSA+GNbAC1 B1: BSA (1 μg/ml) coated for 2 hours at 37° C., washed with PBS and subsequently coated with GNbAC1 (7.35 μg/ml=50 nM) for 1 hour at 37° C. • BSA+GNbAC1 B2: BSA (1 μg/ml) coated for 2 hours at 37° C., washed with PBS and subsequently coated with GNbAC1 (29.4 μg/ml=200 nM) for 1 hour at 37° C. Human Oligodendrocyte Precursor Cells Culture
The vial containing the human OPC was placed in a 37° C. water bath and gently agitated by rotation until the content was completely thawed. The cells were gently resuspended with a 1 ml Gilson pipette. Then, they were diluted in complete OPCM, and seeded into the 8-wells labtek culture vessels (7000 cells/cm^2=10000 cells per well) previously coated with poly-L-lysine (0.01%, Sigma) and with (or without) the treatments described above (see 3.2.1.1) under a sterile laminar flow hood (Fischer Bioblock, France). The cultures were incubated at 37° C.; 5% CO2 until subsequent immunocytochemistry experiments. The growth medium was changed the next day to remove the residual DMSO and unattached cells in the cultures treated for 72 hours.
After 3 hours of pre-cultivation (see 3.2.1.2) of the human OPC in the 8-well labtek culture vessels, the cells were incubated at 37° C. for 24 hours or 72 hours in 8-wells labteks (250 μl/well) with the addition of the following solutions: • MSRV-Env Buffer, used as a negative control, added in complete cell culture medium • MSRV-Env added at 3 nM (0.184 μg/ml) in complete cell culture medium • MSRV-Env (3 nM)+GNbAC1 (200 nM; 29.4 μg/ml) mixture added in complete cell culture medium • GNbAC1 (200 nM) alone added in complete cell culture medium Expression of TLR4 and Myelination Markers in OPC In Vitro […]

B1: GNbAC1: recombinant humanized anti-Env IgG4 monoclonal antibody comprising the CDRs of SEQ ID No. 1 to 6 (antibody, chains of the INN, looked up, V domains shown)
VH: QVQLVQSGAEVKKPGSSVKVSCKASGYTFTDYEMHWVRQAPGQGLEWIGAVAPETGGTAYNQKFKGRATITADKSTSTAYMELSSLRSEDTAVYYCTSTVVPFAYWGQGTLVTVSS
VL: QIQLTQSPSSLSASVGDRVTITCSASSSVSYMYWYQQKPGKAPKAWIYRTSNLASGVPSRFSGSGSGTDYTLTISSLQPEDFATYYCQQYQSLPLTFGGGTKVEIK
- effect on percentage of CNPase positive OPC without MSRV-Env (GNbAC1 50 nM or 200 nM coated alone or with BSA 1 μg/ml, 24 hours): no effect
- effect on the decrease of CNPase positive cells induced by coated MSRV-Env (GNbAC1 50 nM or 200 nM, protocols GNbAC1-A and GNbAC1-B, 24 hours): significantly inhibits; also recorded: fully inhibits MSRV-Env effect
- percentage of CNPase positive cells (GNbAC1 200 nM alone in culture medium, 24 hours): 74±2%
- effect on CNPase expression of GNbAC1 alone in culture medium (GNbAC1 200 nM alone, 24 hours): no effect; also recorded: does not show any effect alone
- effect on the inhibition of CNPase expression induced by coated MSRV-Env (GNbAC1 200 nM, both protocols, 24 hours, OPC ICC 03): completely reverses; also recorded: fully inhibits MSRV-Env effect
- percentage of CNPase positive cells (GNbAC1-A 50 nM (mixture with MSRV-Env 1 μg/ml coated), 24 hours, OPC ICC 02): 69±4%
- percentage of CNPase positive cells (GNbAC1-A 200 nM (mixture with MSRV-Env 1 μg/ml coated), 24 hours, OPC ICC 02): 80±2%
- CNPase positive cells, normalized to control condition (buffer = 100%) (GNbAC1-A 200 nM with coated MSRV-Env): 102±1%
- percentage of CNPase positive cells (GNbAC1-A 200 nM, coated MSRV-Env 1 μg/ml, 24 hours, OPC ICC 03): 90±2%
- percentage of CNPase positive cells (GNbAC1-B 50 nM (coated after MSRV-Env 1 μg/ml), 24 hours, OPC ICC 02): 96±3%
- percentage of CNPase positive cells (GNbAC1-B 200 nM (coated after MSRV-Env 1 μg/ml), 24 hours, OPC ICC 02): 76±4%
- CNPase positive cells, normalized to control condition (buffer = 100%) (GNbAC1-B 200 nM with coated MSRV-Env): 101±1%
- percentage of CNPase positive cells (GNbAC1-B 200 nM, coated MSRV-Env 1 μg/ml, 24 hours, OPC ICC 03): 91±4%
- percentage of CNPase positive cells (MSRV-Env 3 nM + GNbAC1 200 nM in culture medium, 24 hours): 76±2%
- effect on the decrease of CNPase expression induced by MSRV-Env in culture medium (MSRV-Env 3 nM, GNbAC1 200 nM, 24 hours): fully antagonizes; also recorded: inhibits completely this effect
